# Test results as given in publication PMC10461225, “Creation of a Peptide Antagonist of the GFRAL–RET Receptor Complex for the Treatment of GDF15-Induced Malaise” (Journal of Medicinal Chemistry, 2023).
# Where two headings read alike, the source gives them in different places.
# T1: Recombinant His-tagged human GFRAL (Ser19–Glu351) (human, UniProt Q6UXV0 19-351)
# T1 construct: GDNF family receptor alpha-like (GFRAL), human, extracellular domain S19-E351 as defined by UniProt Q6UXV0; also called GFRAL–ECD; GFRAL (S19–E351); source: bought: ACRO Biosystems (GFA-H52H3), expressed in HEK293 cells
# T1 sequence (looked up): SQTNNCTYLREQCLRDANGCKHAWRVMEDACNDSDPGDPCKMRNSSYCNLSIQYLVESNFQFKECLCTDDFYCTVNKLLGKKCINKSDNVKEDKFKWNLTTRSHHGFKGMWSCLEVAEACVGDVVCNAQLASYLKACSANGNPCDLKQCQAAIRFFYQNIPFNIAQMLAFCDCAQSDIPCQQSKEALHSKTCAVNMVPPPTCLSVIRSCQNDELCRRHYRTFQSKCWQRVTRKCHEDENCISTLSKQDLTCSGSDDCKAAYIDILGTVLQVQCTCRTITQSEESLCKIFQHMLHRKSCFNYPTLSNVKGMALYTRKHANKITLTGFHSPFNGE
# T2: recombinant human GFRAL (S19–E351) (Homo sapiens, UniProt Q6UXV0)
# T2 construct: contained a truncated Ser19–Glu351 domain was used for all SPR experiments; His; purchased ACRO Biosystems GFA-H52H3; host or cells: HEK293 cells
# T2 sequence (Q6UXV0 19-351): T1 sequence (looked up)
# B1: Recombinant human growth differentiation factor 15 (GDF15) (ligand, UniProt Q99988 195-308, looked up)
# chain: ARARNGDHCPLGPGRCCRLHTVRASLEDLGWADWVLSPREVQVTMCIGACPSQFRAANMHAQIKTSLHRLKPDTVPAPCCVPASYNPMVLIQKTDTGVSLQTYDDLLAKDCHCI
# notes: Growth differentiation factor 15, human, HEK293-derived commercial recombinant protein; commercial GDF15 is commonly the mature C-terminal cytokine (a disulfide-linked dimer), so the limits should be checked with the supplier; source: bought: Abcam (ab302451), expressed in HEK293 cells
# Legend:
# Sprague–Dawley rats [1] = conditions: rat, in vivo, ip, 6 mg/kg
# Experimental: In this set of experiments, rats were treated with the highly emetogenic chemotherapeutic agent, cisplatin. Using this gold-standard preclinical model of CINV, we first determined the effects of a single systemic dose of GRASP administered shortly before cisplatin.
# Adult male Sprague–Dawley rats (Charles River) weighing ∼250–270 g on arrival (N = 158) were housed under a 12 h:12 h light/dark cycle in a temperature- and humidity-controlled vivarium (23 ± 1 °C). Animals were fed ad libitum with a standard chow diet (Purina LabDiet 5001) with ad libitum access to tap water and kaolin pellets (Research Diets, K50001) for at least 5 days before the start of the experiment. All animals were naïve to experimental drugs and test treatments before the beginning of the experiment. Rats were habituated in single-hanging wire cages and received saline IP injections every day for 1 week before the onset of the experiment. […]
# Using a similar paradigm, the impact of GRASP on cisplatin-induced nausea and anorexia was assessed. […] Food intake and kaolin consumption were measured at 3, 6, and 24 h postinjection.
# Food intake and kaolin consumption were analyzed using repeated measures 2 × 3 ANOVAs, 2 × 2 ANOVAs, or one-way ANOVAs followed by Tukey’s post hoc tests. All data were expressed as means ± SEM. […] All data were analyzed using Prism 9 GraphPad Software (San Diego, California).
# [2] = biological target: T1, Recombinant His-tagged human GFRAL …; assay: SPR; GFRAL (S19-E351) immobilised by amine coupling (EDC/NHS) on a high-capacity carboxyl sensor (Nicoya OpenSPR); peptides or GDF15 as analyte; HBSS pH 7.4 running buffer without BSA; 20 uL/min; conditions: both partners purified
# [3] = biological target: T2, recombinant human GFRAL (S19–E351); assay: SPR, high-capacity carboxyl sensor with immobilised GFRAL, peptide or GDF15 as analyte; conditions: HEK293-derived recombinant human GDF15, TraceDrawer kinetic evaluation, read-out: binding affinity (KD) of GDF15 control to GFRAL
# Experimental: Peptide binding to a segment of recombinant human GFRAL containing the complete known binding domain of GDF15 and the remaining extracellular domain (S19–E351) of the receptor as defined by UniProt (Q6UXV0) was evaluated by SPR (Figure 1). Initial screening aimed to confirm GFRAL immobilization and system functionality by evaluating the dose–response profile to a commercial formulation of HEK293 cell-derived recombinant human GDF15. […] For example, Yang et al.[6] reported a KD of ∼1 nM for the interaction between untagged GDF15 and purified human GFRAL extracellular domain (ECD) and binding of GDF15 to HEK293 transfectants expressing human GFRAL-EDC (Ser19–Glu351) and GDF15 via SPR and flow cytometry, respectively.
# The binding of each peptide to the ECD of GFRAL was initially confirmed from the results of carboxyl-sensor SPR (SI, Figure S9) with bound GFRAL–ECD. A broad range of binding affinities (KD values ranging from […]) was observed. […] We hypothesized this may be due to obstruction of the binding site of GFRAL–ECD in its immobilized state. Thus, we opted for a different SPR approach in which we conjugated GRASP to biotin and immobilized the peptide to the sensor surface, this time via biotin–streptavidin affinity. Increasing concentrations of GFRAL–ECD were then evaluated as the mobile phase against the immobilized GRASP. […]
# [4] = biological target: purified human GFRAL extracellular domain (ECD); conditions: untagged GDF15, purified human GFRAL ECD, SPR and flow cytometry, ref 6 (Yang et al.), read-out: reported KD of GDF15 for human GFRAL, cited from earlier work
# Experimental: Peptide binding to a segment of recombinant human GFRAL containing the complete known binding domain of GDF15 and the remaining extracellular domain (S19–E351) of the receptor as defined by UniProt (Q6UXV0) was evaluated by SPR (Figure 1). Initial screening aimed to confirm GFRAL immobilization and system functionality by evaluating the dose–response profile to a commercial formulation of HEK293 cell-derived recombinant human GDF15. […] GRASPCy5 binding was evaluated by flow cytometry and compared with results from untransfected HEK293 cells.
# Sprague–Dawley rats [5] = assay: GDF15-induced anorexia and pica (kaolin intake) in rats; type: in vivo, rat
# Source text: In initial experiments, we examined whether central administration of GRASP (i.e., directly into the fourth ventricle or fourth ICV) would counteract the effects of centrally delivered GDF15 in rats. Because the AP/NTS is located on the dorsal surface of the hindbrain at the caudal end of the fourth ventricle, this route of administration facilitates targeted and selective drug delivery near the sites of GFRAL expression. To assess the impact of these interventions, we measured pica behavior, i.e., the ingestion of non-nutritive substances such as kaolin,[29] as this represents an accurate and reliable proxy for malaise in rats and has been used to examine the effects of agents known to cause nausea in humans.[29]−[31]
# To increase the translational impact of this study and more closely mimic a potential clinical scenario, we conducted a dose–response study in which both GRASP and GDF15 were administered systemically to rats via the intraperitoneal (IP) route.
# All systemic treatments were delivered by intraperitoneal (IP) injection.
# To evaluate the impact of GRASP on GDF15-induced anorexia and nausea (proxied by kaolin ingestion) in rats (n = 10, 400–450 g), GRASP (300 and 3000 pmol), or vehicle control was administered centrally immediately before intraventricular infusion of GDF15 (30 pmol). […]
# All data were expressed as means ± SEM.
Molecule,kaolin consumption and anorexia induced by cisplatin (Sprague–Dawley rats [1]),Kd [2],Kd [3],Kd ([4]; listed as native ligand),Kd [4],"kaolin consumption and anorexia induced by GDF15, central (Sprague–Dawley rats [5]; GDF15 30 pmol central administration, vs vehicle)","kaolin consumption and anorexia induced by GDF15, systemic (Sprague–Dawley rats [5]; GDF15 20 μg/kg IP)"
cis-diammineplatinum dichloride [cisplatin],leads to significant kaolin consumption and anorexia,,,,,,
B1,,6.02 nM,6 nM,1 nM,~1 nM,induced significant kaolin consumption and anorexia,"reliably induced kaolin consumption and modest, albeit statistically significant anorexia"
